The data set addresses FoxO3-GST (human, UniProt O43524 1-673). In words: EMSA; 5 nM probe; 50 ng/ul protein; Binding Buffer as printed: 200 mM Tris-HCl pH 7.5, 200 mM KCl, 200 mM MgCl2, 2% NP-40, 10% glycerol, 5 mM DTT, 500 ng/ul salmon sperm DNA (possibly a stock concentration); room temperature 20 min; 4% native PAGE at 4 C. To be noted: protein: recombinant; tags: GST; label: 32P; blunt.

FoxO3-GST, sequence (O43524 whole entry): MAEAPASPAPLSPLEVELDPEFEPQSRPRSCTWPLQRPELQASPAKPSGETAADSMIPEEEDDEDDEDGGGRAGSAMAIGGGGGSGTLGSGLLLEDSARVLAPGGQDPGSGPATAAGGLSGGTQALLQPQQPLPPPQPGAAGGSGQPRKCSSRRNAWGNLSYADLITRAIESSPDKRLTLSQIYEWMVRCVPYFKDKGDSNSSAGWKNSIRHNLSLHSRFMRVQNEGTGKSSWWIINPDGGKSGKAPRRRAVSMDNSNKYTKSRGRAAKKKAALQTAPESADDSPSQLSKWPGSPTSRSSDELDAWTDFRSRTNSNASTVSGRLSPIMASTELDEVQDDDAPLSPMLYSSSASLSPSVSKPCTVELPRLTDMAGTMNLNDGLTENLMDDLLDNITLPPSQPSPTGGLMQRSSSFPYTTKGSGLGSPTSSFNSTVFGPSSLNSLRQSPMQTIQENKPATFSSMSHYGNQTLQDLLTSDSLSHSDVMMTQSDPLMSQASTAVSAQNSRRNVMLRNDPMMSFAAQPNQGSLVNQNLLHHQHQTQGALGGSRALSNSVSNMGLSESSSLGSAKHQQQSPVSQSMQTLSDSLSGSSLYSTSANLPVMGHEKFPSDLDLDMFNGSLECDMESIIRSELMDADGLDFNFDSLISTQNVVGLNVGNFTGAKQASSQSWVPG

B1: FHRE WT (miR-106b~25/Mcm7 intron 1) (dsDNA)
DNA 1: GGCCCATGTGCTTCTTTGTTTACTAAGAGCGGAAGCAG
DNA 2: CTGCTTCCGCTCTTAGTAAACAAAGAAGCACATGGGCC
B1: the binding result is “binds”.

Values taken from publication PMC3082007, “The microRNA cluster miR-106b~25 regulates adult neural stem/progenitor cell proliferation and neuronal differentiation”.
